Reference: patent CN114075285A

What was measured:
[1] = biological target: CD38 antigen on the cell surface (Daudi cells; NCI-H929 cells) (human) (UniProt P28907); assay: cell-based or functional assay
[2] = biological target: CD38 (human), analyte in Biacore (human) (UniProt P28907); assay: SPR (Biacore 8K), antibody captured on Protein A chip, CD38 as analyte, 25℃

ADCC reporter (Jurkat-Lucia-NFAT-CD16 + NCI-H929), EC50(μg/mL) [1]	ADCC reporter (Jurkat-Lucia-NFAT-CD16 + NCI-H929), Top MFI [1]	Kd [2]	Substance
0.375 µg/mL	2120		Isotype control (antibody)
0.017 µg/mL	57200	88.6 nM	RB0021 PC(Daratumumab) (antibody)
